The values that follow come from patent US20220025003A1, “REAGENTS AND METHODS FOR CONTROLLING PROTEIN FUNCTION AND INTERACTION” (University of Washington, priority 2018, published 2022).

Assay [1] deals with T1, NS3a/asunaprevir complex (Hepatitis C virus genotype 1a, UniProt P27958, C1073S/C1078L/C1185S/I1043Q/I1044E/I1098T/L1039E/L1040E/L1047Q/L1179I/N1200S/P1112Q/Q1106K/T1100M/T1173A).
T1 construct: made in house; host or cells: E. coli BL21 (DE3), pDW363 with BirA
As to the kind of experiment: Yeast surface display binding and titration. An excerpt: (§1) ; these sorts are denoted as “avid” below. […] See FIG. 30a for yeast gating strategies.
(§2) […]. Curves were fit using Graphpad Prism 5 to a one-site specific binding model with Hill coefficient.

In assay [2] the target is T2, NS3a/danoprevir complex (Hepatitis C virus genotype 1a, UniProt P27958, C1073S/C1078L/C1185S/I1043Q/I1044E/I1098T/L1039E/L1040E/L1047Q/L1179I/N1200S/P1112Q/Q1106K/T1100M/T1173A).
T2 construct: made in house; host or cells: E. coli BL21 (DE3), pDW363 with BirA
As to the kind of experiment: Yeast surface display binding and titration.
Excerpt: as §1, §2

For assay [3], the target named is T3, NS3a/grazoprevir complex (Hepatitis C virus genotype 1a, UniProt P27958, C1073S/C1078L/C1185S/I1043Q/I1044E/I1098T/L1039E/L1040E/L1047Q/L1179I/N1200S/P1112Q/Q1106K/T1100M/T1173A).
T3 construct: made in house; host or cells: E. coli BL21 (DE3), pDW363 with BirA
As to the kind of experiment: Yeast surface display binding and titration.
Excerpt: as §1, §2

The subject of assay [4] is NS3a in NIH3T3 cells. As to the kind of experiment: Confocal microscopy for colocalization analysis (fixed cells). It is filed as cell-based. The following applies: 10 μM drug, 1 h. The protocol:
A Leica SP8× system was used for confocal microscopy. […] TagBFP emission was recorded on a PMT detector, and EGFP and mCherry™ were detected by separate HyD™ detectors.
Colocalization experiments were performed in NIH3T3 cells (Flp-In-3T3, Thermo Fisher Scientific). For fixed-cell experiments, cells were plated at 3×10^4 cells/mL on sterile glass coverslides placed in 12-well culture plates. […] One day after transfection, cells were treated with drug or DMSO and fixed. Drug additions were performed by exchanging the media for DMEM+10% v/v FBS plus drug. To fix, cells were washed once with DPBS (Thermo Fisher Scientific), then incubated with 4% v/v paraformaldehyde in DPBS for 15 minutes. After washing twice with DPBS, coverslides with cells were removed from the plate and mounted on glass slides using Fluoromount-G (SouthernBiotech).
Colocalization of NS3a and DNCR1 at the plasma membrane, nucleus, mitochondria and Golgi was performed with two sets of constructs, with either NS3a or DNCR1 as the immobilized component. mCherry™-NS3a was used with Tom20-DNCR1-EGFP, DNCR1-EGFP-Giantin, and 3×NLS-DNCR1-EGFP. […] Colocalization was analyzed after 1 h of 10 μM drug or equal volume DMSO treatment.
All images were analyzed using ImageJ. […] EGFP fluorescence was quantified in the ROI over the timecourse. […] The cytoplasmic fluorescence was normalized to the value in the first and last frame for each cell. […]

B1: DNCR1: danoprevir/NS3a complex reader 1, intermediate-affinity variant, SEQ ID NO: 9 (protein)
chain: SSDEEEARELIERAKEAAERAQEAAERTGDPRVRELARELKRLAQEAAEEVKRDPSSSDVNEALKLIVEAIEAAVDALEAAERTGDPEVRELARELVRLAVEAAEEVQRNPSSSDVNEALLSIVIAIEAAVHALEAAERTGDPEVRELARELVRLAVEAAEEVQRNPSSREVEHALMKIVLAIYEAEESLREAEESGDPEKREKARERVREAVERAEEVQRDPSGWLNH
On to B1, for which the Kd in assay [1] (apparent, yeast-displayed design, NS3a/asunaprevir complex, read-out: KD (nM) ± standard deviation) is 6300 ± 2600 nM; in assay [2] (apparent, yeast-displayed design, NS3a/danoprevir complex, read-out: KD (nM) ± standard deviation), 190 ± 10 nM; in assay [3] (apparent, yeast-displayed design, NS3a/grazoprevir complex, read-out: KD (nM) ± standard deviation), 2900 ± 100 nM. Moreover, the Fold drug specificity is reported as 33 fold in assay [1] (danoprevir/NS3a over asunaprevir/NS3a) and 15 fold in assay [3] (danoprevir/NS3a over grazoprevir/NS3a). Further, the “binding to NS3a/danoprevir complex” value in assay [2] (yeast surface display) is on record as “high nanomolar affinity”. The “Colocalization of DNCR1-EGFP and NS3a-mCherry” value in assay [4] is listed as “functional binding specificity for the danoprevir/NS3a complex”.
